The assay addresses human thrombin (human) (UniProt P00734). Put plainly: cell-based or functional assay.

Bounds are passed on as bounds.

As for “recombinant DES.N135A ATIII (from UniProt P01008 33-464)”, the thrombin inhibition (residual thrombin activity by chromogenic assay); 1 µM dose, wall shear rate 2,000 sec^-1 is > 85%.

Values taken from patent US20070259809A1.
